Tested on: ALPP/ALPPL2-expressing HEK293 cells
Test: Flow cytometry and saturation binding of mouse antibodies
Design: species or system human
Conditions: flow cytometry
Method: Cynomolgus ALPP, human ALPP, ALPPL2, ALPI and ALPL-expressing HEK293 cells were used to evaluate specificity and binding affinity. Briefly, one hundred thousand target-expressing HEK293 cells were transferred to 96-well plates. Cells were pelleted by centrifugation and resuspended in 100 μL of PBS+2% w/v BSA. After blocking, cells were resuspended in PBS+2% w/v BSA with unlabeled monoclonal anti-ALPP/ALPPL2 antibodies ranging in concentration from 8 pM to 666 nM and incubated on ice for 30 minutes. Cells were washed twice in PBS and resuspended in R-PE labeled secondary goat anti-human or anti-mouse antibodies (Jackson Immunoresearch, West Grove, PA) for 30 minutes on ice. Specificity of monoclonal antibodies for human and cynomolgus ALPP and ALPPL2, but not other members of this alkaline phosphatase family was confirmed by flow cytometry. Fluorescence was analyzed using an Attune NxT flow cytometer, and the percent of saturated fluorescent signal was used to determine percent bound and to subsequently calculate apparent KD.

B1: 12F3: murine anti-ALPP/ALPPL2 monoclonal antibody selected for humanization (antibody, V domains shown)
VH: EVKLVESGGGLVQPGGSLSLSCAASGFTFTDYYMSWVRQPPGKALEWLALIRNKATGYTTEYSASVKGRFTISRDNSQSILYLQMNALRAEDSATYYCARASFYYDGKVLAYWGQGTLVTVSA
VL: DTQMTQSPSSLSASLGGKVTITCKASQDINKYIAWYQYKTGKGPRLLIHYTSTLQPGIPSRFSGSGSGRDYSFSISNLEPEDIATYYCLQYDNLYTFGGGTKLEIK
- saturation levels for ALPP: higher saturation levels for ALPP than SG84-1F7

— patent US20250276076A1, “ANTI-ALPP/ALPPL2 ANTIBODIES AND ANTIBODY-DRUG CONJUGATES” (SEAGEN INC., priority 2021, published 2025)
